This is an account of results in a protein production outcome set (Wang et al. 2014).

This series is described as follows: label from the status in PepcDB records.
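Further: failed if final PepcDB status was selected cloned or expressed and not failed if soluble or beyond.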

On to “MIDLRSDTVTKPTEEMRKAMAQAEVGDDVYGEDPTINELERLAAETFGKEAALFVPSGTMGNQVSIMAHTQRGDEVILEADSHIFWYEVGAMAVLSGVMPHPVPGKNGAMDPDDVRKAIRPRNIHFPRTSLIAIENTHNRSGGRVVPLENIKEICTIAKEHGINVHIDGARIFNASIASGVPVKEYAGYADSVMFCLSKGLCAPVGSVVVGDRDFIERARKARKMLGGGMRQAGVLAAAGIIALTKMVDRLKEDHENARFLALKLKEIGYSVNPEDVKTNMVILRTDNLKVNAHGFIEALRNSGVLANAVSDTEIRLVTHKDVSRNDIEEALNIFEKLFRKFS”, for which the protein production entry was “not failed”. Take “MIDNIIRKKWMLKHVRVIVPLLVLLFSLLLTVFVVYTAYSLQLRHNRTLLENLADRQTMALQQFVDGDIHFIGSAANFFRSSTSDDWVRFHTFAEETLKGSQSLIALQWLVKVEPPQAETFTARMQQRFPEFTLYTVPKTGEIKYGFGTDDQAKYVLSDIYPLNYDNRKLLGFYSERERFKRILADIVVNRRPNVSDKVRLLQDGIDKSIVKDGMLVYHPVFSSEDDRSLLGVMVGVVRLSTYFEKLVQISVMEQDLDMRVIDTGFDSEDSPVLYQSPMWRADDEPKIERKLVLPNRDWVLEFELHQPINHSEEWVLLGLGLGGVIISLLLSYIMRMQLEEKQRLTDMIEERTAELRYLVEHDSLTNIYNRRFFSQHLCKMLDEKQSFTLISFDIDRFKQINDSYGHLAGDYALTHVVDVVKKELVESDIFARFGGDEFAILSSVTDETALYTYLERIRKVVEAEPVMLNAETPLTLTISIGASINCEYSEPEILQSVDDQLYLSKSKGRNRVSIAHNAAR”: the protein production entry is given as “failed”. In the case of “MIDTMQYGKNDSLRDEIKAYWSGRAATFDLSPGHEIFSEDERAAWHALILKHLGRGEGRKALDLASGTGVISHLMDDLGFQVTGMDWSETMLGLAREKAKSRGRNIRFFVGDAENTMEPDESADVIITRHLVWTLVDPQASFAEWFRVLKPGGKLLIVDGDFVNTGWRERLVKKLAVSLESIGLVKADQPHKPADPENTFNSILSRVYFSKGARAGDVATMLGATGFEPVSVDQELRAIHRAQAKNFSLLKGILRGLQHRYAVCAVKPDTSVKG” it was “failed”; in that of “MIDWPLAELLPHAGDMILIDQVLAFDEEQIRTRLEVRPGGLFNRPDGSLPAWVGVELMAQSVAAYAGCRARQQGLPVELGFLLGTRKFECNVEHFPLGSTLEIHALRSLEDDNGMGVFECHLSGPGITASARLNVFRPLEHHHHHH”, “failed”; in that of “MIEAIAIAIAVLGAVLLLILFARIRAVDAELKLKKHRAKDAGLADLLNYAAVVDDGVIVGKNGSFMAAWLYKGDDNASSTEEQREMVSFRINQALAGLGNGWMVHVDAVRRPAPNYSERGVSSFPDSVSFAIDEERRRLFEGLGAMFEGYFVLTVTWFPPVLAQRKFVELMFDDDAVAPDHTARTTGLIAQFKREITSLESRLSSAVKMTRLRGQKVVSEEGREVTHDDFLSWLQFCVTGLHHPVMLPSNPMYLDAVIGGQELWGGVVPKIGRKFIQVVAIEGFPLESTPGVLSALAELPSEYRWSSRFIFMDQHESLKHLDKFRKKWKQKIRGFFDQVFNTNTGSINQDAAAMVGDAEAAIAEVNSGLVAAGYYTSVVVLMDEDRERLAASALLVEKAVNRLAFAARIETINTLDAYLGSLPGHGVENVRRPLINTMNLADLLPTSSIWTGSATAPCPMYPPLSPALMHCVTVGATPFRLNLHVRDLGHTFMFGPTGAGKSTHLGIIAAQLRRYAGMSIYAFDKGMSMYPLAAGIRAATKGKSGLHFTVAADDDRLAFCPLQFLETKGDRAWAMEWIDTILALNGVNTTPAQRNEIGNAIMSMHASGARTLSEFSVTIQDEAIREAIKQYTVDGSMGHLLDAEEDGLSLSDFTVFEIEELMNLGEKFALPVLLYLFRRIERALKGQPSVIILDEAWLMLGHPAFRAKIREWLKVLRKANCLVLMATQSLSDAANSGILDVIVESTATKIFLPNVYARDEDTSALYRRMGLNARQIEILATAIPKRQYYYVSENGRRLYDLALGPMALAFVGASDKESVATIKSLEAKFGHEWVHEWLAGRGLNLNDYLEAA”, “failed”. As for “MIEENLVEFIEILMLATAVAVTVKFIRLPYTIALVLAGLFVGLAGLLPEVPLSREIVFFIFLPPLLFEAAMNMDLKELRENFGPIALIAFLGVVVTTTVVGFSLNWILGIPLALALIFGAMVSATDPVSVLATFKSISAPKKLSILIEGESVLNDGAAIVVFAIALEMMLKGVFDPLNAALDFAVVCVGGAAVGLAVGYLAYRILAKIDDALVEIAVTIVAAYLGFVLAERFHFSGVIAVVAAGLILGNYGRDFSMSPTTRVIMLDFWSVIVFLVNSIIFILIGVNTHITIFSAWKEILVAIAAVILARAFVVYPVMTYYRFPNLWKHVVFWGGLRGVIPVALALSFGNQLLSAMAFGVVLFSLLLQGISLEIFVKRKFVSESERELEEIIARYIAARSAKFELMKAVEQGRIVEPVAREMLPNLDAEIEELRSKLEEKIRGGMGSKLRKAAVKYVIDAKKSAVVDAMAGGLVSQEVALEIMRELDSKTAELME”, the protein production entry is listed as “failed”. The result for “MIEENYKEERYTERVNQGGVWGSFKRKFLSWADDDAGYDEEKDYENLLNNEKLQKKLREWRRTKNQQNNNKTFNTNDTNSFETIQSVIAEQLNVDAVQVTPEAEFVKDLGADSDVVELIMALEEKFGIEIPDEQAEKIVNVGDVMRYIEKQLI” reads “failed”.

In the case of “MIEFTALDDLSLLRESVSLECKLAQGRDGKGALPDDFWPTYSAMANTDGGIVILGVRERKGQFEVAGIENPDKLRTELFNHLNNRQKVSVNLLRDEDVRAWPVEGKTLLVVEIPRARRQQRPVYLRGNPLGGHTYRRLHEGDRPLPDEDVKRMLAEQVEDSRDERILPGYGLDDLHLESLRAYRQLFANRDPSHPWNALADQAFLRQIGGWRQHRETGEAGLTLAGLLMFGQWSSITEAVPLCFLDYQERPADYATTVQWLDRIVPDGTWSGNVFDFYRRVVGKLTADIKVPFVLKGDIRQDDTPTHKALREALVNTLVHADYTGRISVLVVKEPAGFVLRNPGGLRVPAQQALQGGMSDCRNRTMQQMFLMIGLGERAGSGMSRIVHGWRDLGHELHLRESYEPHEHSVLEMFWAKGRGATLASESSEESSEESSEETGKKILHLLREEPSLTASALARRLQLTPRAIEKQLEHHHHHH”, the protein production entry is “not failed”. The result for “MIEGHGDDSYKYRHPIRSNFSSNVYNKVNLDGLRAHLCGRISAISAYPEPEPYTLEARLADRHALPAASVCVTNGATEAIYLIAQTFRGTNTAILMPTFSEYADACRMHGHKVTSLYTLDAVPEDVRMVWLCNPNNPTGEVRDKKYLTELIAKHPRVCFVIDQSYEYFTLKELFTAQEAAGFPNVILLHSMTKRYAIPGLRLGYVTAHPGLIGRLRTNRMPWSVNQLAIEAGLYLLSEGIPAGLSMKDYLAECARLKSSLEAIGGLEVWPTDTHFMLVCLRFGKAAALKEYLAREEGILIRDASNFEGLDERFFRIATQTPEENDELVGAIAKWMAE” reads “failed”.

As to “MIELLFPGWLAGILLAIAAGPLGSFVVWRRMSYFGDTLAHASLLGVAFGLLLNINLFSAVIAVTLILALGLVWLERRPYLAVDTLLGIMAHSALSLGLVVVSLMNNVRVDLMAYLFGDLLSVTTEDLWVIGAGVIIVVAVMRWQWRALLSMTISPELAHVDGVKIQRTKLLLMLTTALTIGIAMKFVGALIITSLLIIPAASARRFARTPEQMAIIAVMIGMIAVTGGLAFSAGYNTPAGPSVVLCASLLFIVSLLKPQPA”, the protein production entry is given as “failed”.

Take “MIELLISILTYALISLQSFYRKMDRPAASTIGAALMLAFGVMSLKEAVRAIDYNTIMLLFGMMVLTAYLGIAGFFDWLASKIMGFSGNGKRLLFTIVFSSGFLSALFVNDTICVFMTPVVVRVALSAGISPIPLLIALATSANVGSAVTIIGNPQNMLIGLKSGIGFVQFTAKMLPVGVAGIFIVYSVIYVLYRGELGKLRNGKIEVNLNRRLAAKGLLTFALVLILFVTEFYPVSLSAFIGAAIMFAIGGVKPREALEKVDWGLLLLFCNLFIVMHGFEKSYGEKILSMLSFGESFADYLYFSLLTVAGSNLVSNVPFVMMVLPAAKGAAADFWLILAMASTFAGNLTLIGSVANLIVAESAERHGVHLSFFEYLKAGVPVTFATVLVGALLIYIT”: the protein production entry is given as “failed”. For “MIERGRLGAASRRRATSAHGPIQTTVFMSSGIVFHAVAALAYAVLAGSLWRRLQGRGSVDQASKLTRTGLLGALALHGVALQQAMLGTQHLYIGWALALSAAVWLGLVVFWLESLLIRIDGLQLLLLPAAAIVTAIAALFPQAQLVPHANNPWLRAHLLIALAAYGLITIAALHAMLIALLDRHLHRPLDAPAERSIVGRVLDAQPPLLVQERLLFRVIWIGFVVLTLAVGSGSVASITLTGKFLPFDHKTIFTLLSWATFGVLLLGRHIRGWRGRVALRWTLTGFAFLILAYTGSRFVLEVILHRG”, the protein production result is on record as “failed”.

Turning to “MIERLRGALASASFPVMALLLLSAIVVYPLWTMLFLGAVFAYIVRPVALRINRRIPYLSVSIILAMIVVIMPLVGILVFTVDSIINSAPSLLSLAGSIHVPGAGNLQPSAENTLANLRTVLRDILSGSLNYVVAILQSVPMISLQLFVFLSSTFYFARDGKRLVGYIRTLIPEETRPFMERMASETERVLLSIFYGHFLTALAIGLMAAVGFHLLGYPYAILLGIMTGLFQLIPVIGPWAAYTPLSIYDFVTGNILRGVLVLIFGLFLSTIDIYLRPKLSGKYADIHPMIFLVGFLGGPVVWGVAGFIVGPLVLGLAYAALEAYRMESGGEEVQ”, the protein production entry is reported as “failed”. The result for “MIEVIILAIALSMDAFAVSIGLGATKQQSKVAPLGIIVALYFGLFQGIMPIIGYLGGKGVLSWAESYTPWIAFLLLFLIGVKMIFDSFSEGIEEDISKITHRVLLILAIATSIDAMAAGFSLTLLPVNPLIACLIIASVTFIFSWLGVLVGTKGGTWLENKAEFVGGITLIVMAIKIIITS” reads “failed”. The result for “MIEYIIGVIGLLLASVQDFRSREIEDYIWIVLAVFGILFAIYSAITLSNYSILINSISGFVICFILGYMMFLSGIGGGDGKILIGLGALVPKFQMPIYTSLGTLLNLNYIPNFPIMVFINGIFFMVFLPFVILFRNILNGARPKTGKEVILMFFGEKMKVKVAKEQKRLIMGQNDKINFFPASDDEDFSKYGDEEEIWVTPQIPLIIPITLSYLVTPIIGDRILDLLIPF” reads “failed”; that for “MIFEIIKIGSQPINFAYPIPLLSLLAFMLSGSGYNELIISYIFAFSFFTAANLWNHLNDAEDDLNAGRNYARFLIEHRKIVTEFVVAFYFVSFLLIFFISKSKEIALLLTGLSVVLTWLYSDKIFIGKIIRRFKEDYKTEVFTYILCSFSFPLSFWTIFSEISQVGVVFTLATGFTYLSGFFLKDLKDISADIKSGYRTLAVVLSPSTLLIISVMLFIASTFVVIFSSLLDVTPTSSLLVLTVYPPILFAIYKFHKEKWKITKNIISSLKIYTYSYLGFLIAFAIGCKL”, “failed”. The result for “MIGDGIENSPLLTDLAFPYRLLGAGKESRECLFLLHGSGVDETTLVPLARRIAPTATLVAARGRIPQEDGFRWFERIDPTRFEQKSILAETAAFAAFTNEAAKRHGLNLDHATFLGYSNGANLVSSLMLLHPGIVRLAALLRPMPVLDHVPATDLAGIRTLIIAGAADETYGPFVPALVTLLSRHGAEVDARIIPSGHDIGDPDAAIVRQWLAGPIAIAQAD” reads “not failed”; that for “MIGIVAAFEKVKIPEMGKSFGTGWLPPLPSLKDYTEESAQIPEMAEKLGIPTSRKETKTLELPVSIDFRNWCSPIEDQMDLGSCTAHAGVGVVEYFERRAFGKHIDGSRFFVYKTTRNLMGVKGDTGAWLRNTMGALALCGVPPEKYFPYTSRKTPGPDGEPTFDDEPSSFVYSLADNFEALNYFCHDPQGMNLPPEDVILSVKKYLAAGIPSMFGFYGFPSFKDTDVKGGIPFPGPDERSIWGHAVVAVGYDDNMKIRNTLSNKETTGAFLIRNSWGTAWGDKGYGWLPYEYALNKFALDFWSLISMKWVETGNFGLELESSRSRARETLSRDMPLPHALEHHHHHH”, “not failed”.
